The source of these data is article PMC6350010.

For the experiment, the target named is Wild-type Aβ (1–40) peptide. Kind of experiment: single-molecule fluorescence burst analysis.

Atto655-Aβ40 (peptide): the mean of the oligomer size distribution, μ1 (relative photon number N phot,rel) is 7.4 N¯phot,mon.
